Assay results: paper PMC6888979 (The Journal of Experimental Medicine, 2019)

Biological target: the molecule itself

B1: soluble recombinant ectodomain of murine FIBCD1 (mFIBCD1^Ecto) (domain or fragment)
chain: NHTHTPGTAPPPIVSTGTAGANSALVTVERADSSHLSLLIDPRCPDLTDSFARLEGIQASILRALSEHQAQPRLDGAPELLDALADQLPRLLTRASELQAECAGLRKGHSLLGQGLSTLQSEQGRLIQLLSESQGHMAHLVNSVSDVLEALQRERGLGRPRVKADLQRAPSRGARPRGCANGSRPRDCLDVLLSGQQDDGVYSIFPTHYPAGFQVYCDMRTDGGGWTVFQRREDGSVNFFRGWEAYREGFGKLTGEHWLGLKRIHALTTQAAYELHVDLEDFDNGTAYAHYGSFGVGLFSVDPEEDGYPLTVADYSGTAGDSLLKHSGMRFTTKDRDSDHSENNCAAFYRGAWWYRNCHTSNLNGQYLRGAHASYADGVEWSSWTGWQYSLKFSEMKIRPVREDR
  stoichiometry N: 4
